Article PMC5120205

Target: recombinant full-length IsdB, Q2FHV2
Experiment: ELISA
Details: chain shown with the change

B1: D4-10-N1 antibody (human IgG) H:Y52A; H:F53A (protein)
chain 1: QVQLQESGPGLVKPSETLSLICTVSGGSISSSSYYWGWIRQTPERNLEWIGIIAASGTTYYNPSLQSRVSMSLDRSTNRFSLRLSSVTAADTAIYYCAKPKSRDRGGPGDDYFGMDVWGQGIMVTVSS
chain 2: DIQLTQSPSFLSASVADRVTITCRASQAVRSSLAWYQQKPGKAPQLLIYSASTLENGVSSRFSGSGPGTEFTLTISSLQPEDVGTYYCQQLNTYPFTFGPGTKVEIK
For B1, the percent of parent was 9%.
